Columns and labels:
[1] = biological target: T1, IL-23 (human, p19/p40 heterodimer) (Homo sapiens, UniProt Q9NPF7;P29460 SEQ:20-189,SEQ:23-328); assay: filter; no binding detectable; conditions: tags: R&D Systems, carrier free; label: 5'-32P
From the text: (§1) Following the dRmY selection process for aptamers binding to IL-23 (described in Example 1C above) and determination of the oligonucleotide sequences, the sequences were systematically minimized to obtain shorter oligonucleotide sequences that retain the binding characteristics. On the basis of the IL-23 binding analysis described in Example 1A above and the cell based assay data described in Example 3 below, ARC489 (SEQ ID NO 91) (74mer) was chosen for further characterization. 3 minimized constructs based on clone ARC489 (SEQ ID NO 91) were designed and generated. […] Table 23 includes the binding data for the dRmY minimized aptamers.

[2] = biological target: T1, IL-23 (human, p19/p40 heterodimer); assay: filter; direct binding without tRNA; conditions: tags: R&D Systems, carrier free; label: 5'-32P
Method: (§2) These molecules were gel purified and assayed for IL-23 binding using the dot blot assay as described above and compared to each other and to the parent molecule, ARC979. An 8 point IL-23 titration (0 nM to 300 nM, 3 fold serial dilutions) was used in the binding assay.

[3] = biological target: T1, IL-23 (human, p19/p40 heterodimer); assay: filter; -tRNA; competition 6 nM; conditions: tags: R&D Systems, carrier free
Method: as §2

[4] = biological target: T1, IL-23 (human, p19/p40 heterodimer); assay: filter; direct binding without tRNA; competition Kd 5 nM; conditions: tags: R&D Systems, carrier free; label: 5'-32P
Method: as §2

[5] = biological target: T1, IL-23 (human, p19/p40 heterodimer); assay: competition; 1X PBS, 0.1 mg/mL BSA; direct Kd 93 nM with tRNA, 90 nM without; conditions: tags: R&D Systems, carrier free; label: 5'-32P; G4
Method: (§3) The fraction aptamer bound vs. [IL-23] was used to calculate the KD by fitting the following equation to the data: Fraction aptamer bound=amplitude*([IL-23]/(KD+[IL-23]))+background binding.
(§4) Several of the minimized constructs from the dRmY Selection 2 were also assayed in a competition format in which cold aptamer was titrated and competed away trace ³²P ATP labeled aptamer In the competition assay, the [IL-23] was held constant, the [trace labeled aptamer] was held constant, and the [unlabeled aptamer] was varied. The KD was calculated by fitting the following equation to the data: Fraction aptamer bound=amplitude*([aptamer]/(KD+[aptamer]))+background binding.

[6] = biological target: T1, IL-23 (human, p19/p40 heterodimer); assay: filter; no binding; used as negative control; conditions: tags: R&D Systems, carrier free; label: 5'-32P
From the text: as §3
Table 25 below summarizes the minimized sequences and the parent clone from which they were derived, and Table 26 summarizes the binding characterization from direct binding assays (+/−tRNA) and competition binding assays for the minimized constructs tested.

[7] = biological target: T1, IL-23 (human, p19/p40 heterodimer); assay: competition; 1X PBS, 0.1 mg/mL BSA; direct binding Kd 40 nM with tRNA; conditions: tags: R&D Systems, carrier free; label: 5'-32P; G4 (predicted)
Method: as §3, §4

[8] = biological target: T2, IL-23 (mouse, p19/p40 heterodimer) (Mus musculus, UniProt Q9EQ14;P43432 SEQ:22-196,SEQ:23-335); assay: filter; 1X PBS, 0.1 mg/mL BSA, 30 min RT; conditions: tags: isolated in-house; label: 32P
T2 sequence 1: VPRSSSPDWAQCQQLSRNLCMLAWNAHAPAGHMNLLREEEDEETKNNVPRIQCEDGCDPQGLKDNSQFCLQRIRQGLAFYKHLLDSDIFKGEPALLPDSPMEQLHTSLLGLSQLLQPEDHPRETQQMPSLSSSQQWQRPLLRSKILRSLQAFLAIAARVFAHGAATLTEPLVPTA
T2 sequence 2: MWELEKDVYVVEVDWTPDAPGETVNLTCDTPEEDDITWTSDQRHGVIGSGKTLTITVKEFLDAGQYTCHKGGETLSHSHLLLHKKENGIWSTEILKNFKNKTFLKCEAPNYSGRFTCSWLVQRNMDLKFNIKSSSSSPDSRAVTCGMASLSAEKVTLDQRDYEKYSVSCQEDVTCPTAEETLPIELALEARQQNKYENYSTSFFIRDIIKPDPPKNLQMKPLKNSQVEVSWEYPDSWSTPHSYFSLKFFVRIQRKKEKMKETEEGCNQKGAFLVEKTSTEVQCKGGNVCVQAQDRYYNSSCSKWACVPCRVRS
From the text: (§5) Based on visual inspection of the parent clone sequences of the mouse IL-23 rRfY aptamers described in Example 1E, and predicted RNA structures using an RNA folding program (RNAstructure), minimized constructs were designed for each of the seven binding mIL-23 clones. PCR templates for the minimized construct oligos were ordered from Integrated DNA Technologies (Coraville, Iowa). Constructs were PCR amplified, transcribed, gel purified, and tested for binding to mIL-23 using the dot blot binding assay previously described. Trace ³²P-labeled RNA was combined with mIL-23 and incubated at room temperature for 30 min in 1×PBS plus 0.1 mg/mL BSA for a final volume of 30 μL. The reaction was added to a dot blot apparatus (Schleicher and Schuell Minifold-1 Dot Blot, Acrylic). Binding curves were generated as described in previous sections. Table 33 summarizes the protein binding characterization for each rRfY minimized construct that had significant binding to mIL-23.

[9] = biological target: T1, IL-23 (human, p19/p40 heterodimer); assay: cell_activity; TransAM STAT3; conditions: tags: R&D Systems, carrier free
[10] = biological target: T1, IL-23 (human, p19/p40 heterodimer); assay: filter; 0.1 mg/mL tRNA; conditions: tags: R&D Systems, carrier free
Method: Monitoring Progress of rRfY Selection. Dot blot binding assays were performed throughout the selections to monitor the protein binding affinity of the pools. Trace ³²P-labeled RNA was combined with a dilution series of h-IL-23 and incubated at room temperature for 30 minutes in 1×SHMCK (20 mM Hepes, 120 mM NaCl, 5 mM KCl, 1 mM MgCl₂, 1 mM CaCl₂, pH 7.4) plus 0.1 mg/mL tRNA for a final volume of 20 μL. The binding reactions were analyzed by nitrocellulose filtration using a Minifold I dot-blot, 96-well vacuum filtration manifold (Schleicher & Schuell, Keene, N.H.). A three-layer filtration medium was used, consisting (from top to bottom) of Protran nitrocellulose (Schleicher & Schuell), Hybond-P nylon (Amersham Biosciences) and GB002 gel blot paper (Schleicher & Schuell). RNA that is bound to protein is captured on the nitrocellulose filter, whereas the non-protein bound RNA is captured on the nylon filter. The gel blot paper was included simply as a supporting medium for the other filters. Following filtration, the filter layers were separated, dried and exposed on a phosphor screen (Amersham Biosciences, Piscataway, N.J.) and quantified using a Storm 860 Phosphorimager® blot imaging system (Amersham Biosciences).

[11] = biological target: T2, IL-23 (mouse, p19/p40 heterodimer); assay: filter; 1X PBS, 0.1 mg/mL BSA, 30 min RT; inactive in TransAM cell assay; conditions: tags: isolated in-house; label: 32P
From the text: as §5

[12] = biological target: IL-12 (human, p35/p40 heterodimer) (Homo sapiens, UniProt P29459;P29460 SEQ:57-253,SEQ:23-328); assay: filter; no binding detectable; conditions: label: 32P
[13] = biological target: T1, IL-23 (human, p19/p40 heterodimer); assay: filter; no binding detectable; conditions: tags: R&D Systems, carrier free; label: 32P
[14] = biological target: T1, IL-23 (human, p19/p40 heterodimer); assay: filter; 1X PBS, tRNA, ssDNA, BSA, 30 min RT; conditions: tags: R&D Systems, carrier free; label: 5'-32P
From the text: as §1

[15] = biological target: T1, IL-23 (human, p19/p40 heterodimer); assay: filter; no binding in dot blot, but active in TransAM cell assay (p381); conditions: tags: R&D Systems, carrier free; label: 5'-32P

T1 sequence (Q9NPF7 20-189, chain 1 of 2): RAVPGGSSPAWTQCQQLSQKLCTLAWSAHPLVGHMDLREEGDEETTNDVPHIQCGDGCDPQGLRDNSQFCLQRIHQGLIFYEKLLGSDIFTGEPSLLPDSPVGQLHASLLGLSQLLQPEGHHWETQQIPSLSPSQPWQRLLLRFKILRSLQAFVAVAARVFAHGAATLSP
T1 sequence (P29460 23-328, chain 2 of 2): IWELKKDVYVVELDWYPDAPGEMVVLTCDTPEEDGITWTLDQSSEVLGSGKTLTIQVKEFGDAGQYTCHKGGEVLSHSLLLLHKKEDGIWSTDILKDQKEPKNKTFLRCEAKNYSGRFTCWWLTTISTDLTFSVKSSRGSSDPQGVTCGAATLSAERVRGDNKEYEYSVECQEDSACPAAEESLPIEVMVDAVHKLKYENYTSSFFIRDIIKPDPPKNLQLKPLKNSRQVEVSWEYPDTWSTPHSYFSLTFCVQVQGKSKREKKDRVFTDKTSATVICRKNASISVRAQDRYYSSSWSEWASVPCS
Sequence of IL-12 (human, p35/p40 heterodimer) (P29459 23-219, chain 1 of 2): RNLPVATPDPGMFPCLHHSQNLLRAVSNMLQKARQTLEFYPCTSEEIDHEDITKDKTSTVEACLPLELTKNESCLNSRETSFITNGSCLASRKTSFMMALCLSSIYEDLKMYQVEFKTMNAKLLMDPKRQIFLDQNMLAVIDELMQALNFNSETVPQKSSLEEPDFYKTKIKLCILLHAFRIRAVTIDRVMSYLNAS
Sequence of IL-12 (human, p35/p40 heterodimer) (P29460 23-328, chain 2 of 2): as the sequence (P29460 23-328, chain 2 of 2) above

ACAGCGCCGGUGUUUUCAUUGGGUGGAUGCGCUGU (mixed, 2'-deoxy A and G, 2'-OMe C and U (dRmY)) [ARC529]: no binding [1].

With ACAGGCAAGUAAUUGGGGAGUGCGGGCGGGGUGU (mixed, dRmY; PS between nt 9 and 10) [ARC1154] the Kd [2] was 412 nM.

B1: ARC1162 (mixed)
RNA: ACAGGCAAGUAAUUGGGGAGUGCGGGCGGGGUGU
modifications: deoxy A,G; 2'-OMe C,U; PS 20-21 [PS between 20-21; 2'-OMe C,U at 2,6,10,13,14,21,23,27,32,34; deoxy A,G at all other positions]
With B1 the Kd [3] was 47 nM.

B2: ARC1160 (mixed)
RNA: ACAGGCAAGUAAUUGGGGAGUGCGGGCGGGGUGU
modifications: dRmY; PS between nt 18 and 19 [N = PS linkage, not a base; PS between nt 18 and 19; 2'-deoxy all A/G; 2'-OMe all C/U (2,6,10,13,14,21,23,27,32,34)]
B2 was tested, and the Kd [4] was 38 nM.

B3: ARC1161 (mixed)
RNA: ACAGGCAAGUAAUUGGGGAGUGCGGGCGGGGUGU
modifications: deoxy A,G; 2'-OMe C,U; PS 19-20 [PS between 19-20; 2'-OMe C,U at 2,6,10,13,14,21,23,27,32,34; deoxy A,G at all other positions]
B3 was tested, and the Kd [3] was 55 nM.

Binder ACAGGCAAGUAAUUGGGGAGUGCGGGCGGGGUGU (mixed, 2'-deoxy A and G, 2'-OMe C and U (dRmY)) [ARC979] has a Kd [5] of 9 nM.

GGCAAGGUAAUUGGGUAGUGAGGGCUGGG (mixed, 2'-deoxy A and G, 2'-OMe C and U (dRmY)) [ARC895]: no binding [6].

For CGAUAUAGGCGGUACGGGGGGAGUGGGCUGGGGUCG (mixed, 2'-deoxy A and G, 2'-OMe C and U (dRmY)) [ARC795], the Kd [7] was 4 nM.

Binder GGGCACUCAGCCACAGGUGGCUUAAUACUGUAAAGACGUGCCC (ssRNA, 2'-F all C and U (rRfY)) [ARC1739 (ARC1628 minimer)] has a Kd [8] of 1 nM.

In the case of GGGCACUCAGCCACCUUGGGCUUAAUACCUAUCGGAUGUGCCC (ssRNA, 2'-F all C and U (rRfY)) [ARC1634 minimer], the Kd [8] is reported as 19 nM.

GCGCCGGUGGGCGGGCACCGGGUGGAUGCGCC (mixed, 2'-deoxy A and G, 2'-OMe C and U (dRmY)) [ARC528]: no binding [1].

Work on GGAGUACACAAGAAGUGCUUCCGAAAGGACGUCGAAUAGAUACUCC (ssRNA, 2'-F C,U) [B10.min5] yielded an IC50 [9] of 80 nM and a Kd [10] of 277 nM.

Binder GGAGCGCACUCAGCCACCGGCUUAAUAUCCAAUAGGAACGUUCGCUCU (ssRNA, 2'-F all C and U (rRfY)) [ARC1918 (ARC1632 minimer)] has a Kd [11] of 1 nM.

B4: A10.min6 (ssRNA)
RNA: GGAGUACGCCGAAAGGCGCUCUGAGUACUCAGCGUCCGUAAGGGAUACUCC
modifications: 2'-F C,U
For B4, the IC50 [9] was 250 nM and the Kd [10] was 48.3 nM.

B5: ARC492 (mixed)
RNA: GGGAGAGGAGAGAACGUUCUACUCAAUGACCGCGCGAGGCUCUGGGAGAGGGCGCUGUCGAUCGAUCGAUCGAUG
modifications: 2'-deoxy A and G, 2'-OMe C and U (dRmY)
B5: no binding [12]; no binding [13].

In the case of GGGUACGCCGAAAGGCGCUUCCGAAAGGACGUCCGUAAGGGAUACCC (ssRNA, 2'-F C,U) [Type 1.4], the IC50 [9] is reported as 80 nM and the Kd [10] is reported as 185 nM.

With ACAGCGCCGGUGGGCGGGCAUUGGGUGGAUGCGCUGU (mixed, 2'-deoxy A and G, 2'-OMe C and U (dRmY)) [ARC527] the Kd [14] was 12.6 nM.

GGCGGUUACGGGGGAUGCGGGUGGGACAGG (mixed, 2'-deoxy A and G, 2'-OMe C and U (dRmY)) [ARC982]: no binding [15].

GGGCACUCAGCCACAGCUCGGUGGCUUAAUAUCUAUGUGAACGUGCCC (ssRNA, 2'-F all C and U (rRfY)) [ARC1633 minimer] was tested, and the Kd [8] was 25 nM.

Reference: patent US20060193821, “Aptamers to the human IL-12 cytokine family and their use as autoimmune disease therapeutics” (published 2006)
